Molecular target: C1q (Complement Technologies, Tyler, Tex.) (UniProt P02745)
Assay: cell-based or functional assay

Chain of UniProt P02745 (P02745 23-245 limits assumed, chain 1 of 3): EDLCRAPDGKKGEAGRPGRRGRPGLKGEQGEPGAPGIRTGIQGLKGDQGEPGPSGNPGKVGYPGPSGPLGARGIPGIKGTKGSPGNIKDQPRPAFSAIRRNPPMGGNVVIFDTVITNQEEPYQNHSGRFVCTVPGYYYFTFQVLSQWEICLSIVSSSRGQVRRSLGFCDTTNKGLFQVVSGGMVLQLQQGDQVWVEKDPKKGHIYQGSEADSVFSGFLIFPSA
Chain of UniProt P02745 (P02746 28-253 limits assumed, chain 2 of 3, further chain): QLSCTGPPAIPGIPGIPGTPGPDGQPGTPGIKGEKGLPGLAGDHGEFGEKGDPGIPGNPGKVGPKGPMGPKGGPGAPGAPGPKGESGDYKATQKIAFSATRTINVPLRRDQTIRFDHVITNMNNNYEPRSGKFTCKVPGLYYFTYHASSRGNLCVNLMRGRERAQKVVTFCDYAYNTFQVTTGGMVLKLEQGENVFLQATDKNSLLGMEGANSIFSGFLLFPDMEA
Chain of UniProt P02745 (P02747 29-245 limits assumed, chain 3 of 3, further chain): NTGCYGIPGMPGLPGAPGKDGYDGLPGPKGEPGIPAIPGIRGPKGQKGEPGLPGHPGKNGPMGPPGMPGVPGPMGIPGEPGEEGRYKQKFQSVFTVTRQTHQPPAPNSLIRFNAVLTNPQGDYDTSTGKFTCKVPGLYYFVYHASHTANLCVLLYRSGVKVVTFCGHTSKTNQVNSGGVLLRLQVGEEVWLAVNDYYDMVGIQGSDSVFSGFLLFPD

| EC50 values [µg/mL] for C1q requirement for induction of CDC of Daudi cells [µg/mL] | efficacy of C1q utilization, fold improvement by carboxypeptidase B treatment [fold] | Substance |
| --- | --- | --- |
| 4.8 |  | Anti-CD38 antibody (005), collected K2 isoform (two heavy-chain C-terminal lysines per antibody) |
| 0.8 | < 2 | Anti-CD38 antibody (005), unfractionated preparation after carboxypeptidase B treatment |
| 1.3 |  | Anti-CD38 antibody (005), unfractionated preparation isolated from hybridoma supernatant |
